In patent publication US20260209362A1 (VIB VZW, published 2026):
Changes are numbered by the printed parent chain. Blank lines part the entries; values can stand above or below the binder they belong to.

Assays:
[1] = target: T1, mouse IL-12Rβ2 (mouse, UniProt P97378 24-874); test: flow cytometry, P.E. on transfected HEK293T cells
T1 construct: Expressed on HEK293T cells transiently transfected with a pcDNA3 plasmid (Genscript clone OMu01776); also called mIL-12RB2; NP_032380.1
T1 sequence: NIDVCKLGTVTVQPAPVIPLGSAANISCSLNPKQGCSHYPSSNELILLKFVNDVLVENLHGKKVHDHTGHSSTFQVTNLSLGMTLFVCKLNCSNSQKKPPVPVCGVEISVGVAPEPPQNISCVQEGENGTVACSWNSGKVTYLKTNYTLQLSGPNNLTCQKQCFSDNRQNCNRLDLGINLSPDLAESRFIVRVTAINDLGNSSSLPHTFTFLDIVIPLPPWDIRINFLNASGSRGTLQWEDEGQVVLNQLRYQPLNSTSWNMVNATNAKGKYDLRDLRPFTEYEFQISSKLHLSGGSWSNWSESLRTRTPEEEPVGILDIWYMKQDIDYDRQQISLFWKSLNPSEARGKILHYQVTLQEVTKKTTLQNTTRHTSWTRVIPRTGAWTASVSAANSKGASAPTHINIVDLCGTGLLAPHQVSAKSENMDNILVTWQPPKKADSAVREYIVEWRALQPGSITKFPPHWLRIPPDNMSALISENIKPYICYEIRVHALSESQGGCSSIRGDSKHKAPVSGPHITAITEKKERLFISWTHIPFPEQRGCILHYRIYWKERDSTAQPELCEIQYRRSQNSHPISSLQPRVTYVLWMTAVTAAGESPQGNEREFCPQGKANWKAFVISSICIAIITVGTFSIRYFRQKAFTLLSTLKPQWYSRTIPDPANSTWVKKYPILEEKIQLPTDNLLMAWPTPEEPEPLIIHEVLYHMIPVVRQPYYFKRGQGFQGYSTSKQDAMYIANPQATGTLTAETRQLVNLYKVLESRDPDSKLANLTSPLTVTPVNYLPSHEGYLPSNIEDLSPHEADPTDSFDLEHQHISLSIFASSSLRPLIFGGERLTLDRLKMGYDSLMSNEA

[2] = target: T2, human IL-12Rβ2 (human, UniProt Q99665 24-862); test: flow cytometry, P.E. on transfected HEK293T cells
T2 construct: Expressed on HEK293T cells transiently transfected with a pcDNA3 plasmid (Genscript clone OHu21785); also called hIL-12RB2; IL-12 receptor β2 subunit
T2 sequence: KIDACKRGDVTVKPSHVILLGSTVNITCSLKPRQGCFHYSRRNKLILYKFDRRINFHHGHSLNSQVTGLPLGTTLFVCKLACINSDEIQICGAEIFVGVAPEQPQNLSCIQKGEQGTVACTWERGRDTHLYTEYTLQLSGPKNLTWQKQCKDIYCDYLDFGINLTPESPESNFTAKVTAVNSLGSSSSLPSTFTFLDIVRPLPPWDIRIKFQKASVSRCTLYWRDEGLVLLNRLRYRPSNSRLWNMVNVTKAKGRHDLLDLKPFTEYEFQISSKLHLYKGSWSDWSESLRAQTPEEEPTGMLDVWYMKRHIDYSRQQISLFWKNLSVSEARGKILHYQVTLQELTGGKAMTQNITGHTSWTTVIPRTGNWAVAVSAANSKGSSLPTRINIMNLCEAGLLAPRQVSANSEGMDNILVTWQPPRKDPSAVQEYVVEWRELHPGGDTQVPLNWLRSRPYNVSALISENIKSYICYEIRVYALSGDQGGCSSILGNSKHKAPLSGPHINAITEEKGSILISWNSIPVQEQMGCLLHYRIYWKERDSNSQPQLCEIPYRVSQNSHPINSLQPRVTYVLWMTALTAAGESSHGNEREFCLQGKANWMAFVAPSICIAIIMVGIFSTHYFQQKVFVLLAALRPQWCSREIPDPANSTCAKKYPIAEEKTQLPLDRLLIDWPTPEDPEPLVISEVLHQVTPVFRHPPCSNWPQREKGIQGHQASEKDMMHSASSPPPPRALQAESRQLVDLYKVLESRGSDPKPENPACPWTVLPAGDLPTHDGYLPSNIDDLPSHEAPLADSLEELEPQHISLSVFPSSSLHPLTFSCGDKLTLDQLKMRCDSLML

% cells bound [1]: 0.74%
dMFI [1]: 157
% cells bound [2]: 31.2%
dMFI [2]: 676
B1: anti-IL-12Rβ2 VHH clone 3CRHM85 (VHH, not shown: small tags and cut ends)
VHH: QVQLQESGGGLVQPGGSLRLSCAASRRTFSKHAMAWFRQAPGKEREFVAVVRWSGIITYYADSVKGRFTISRDDAKNTVYLQMDSLKPEDTAVYYCAAGDYRGNGYYVPGMYDYWGQGTQVTVSS
notes: periplasmic extract; also called 21061

% cells bound [1]: 1.21%
dMFI [1]: 103
% cells bound [2]: 30.4%
dMFI [2]: 495
B2: anti-IL-12Rβ2 VHH clone 3CRHM12 (VHH, not shown: small tags and cut ends)
VHH: QVQLQESGGGSVQAGGSLRLSCAVSGRTVSDYAMGWFRQAPGKEREFVAAMSSSETTVYPNSVKGRITISRDNAKNAVYLQMNALKPEDTAVYYCSMGPIVTFQGLARQNEYHYWGQGTQVTVSS
notes: periplasmic extract

% cells bound [1]: 0.33%
dMFI [1]: 43
% cells bound [2]: 33.7%
dMFI [2]: 635
B3: anti-IL-12Rβ2 VHH clone 3CRHM240 (VHH, not shown: small tags and cut ends)
VHH: B2 VHH with A49V, P60T, V101T
notes: periplasmic extract; also called 21065

% cells bound [1]: 0.59%
dMFI [1]: 133
% cells bound [2]: 33.7%
dMFI [2]: 721
B4: anti-IL-12Rβ2 VHH clone 3CRHM133 (VHH, not shown: small tags and cut ends)
VHH: B2 VHH with T28P, M51L, S53A, E55D, Y79D, S96A, V101G
notes: periplasmic extract; also called 21063

% cells bound [1]: 1.02%
dMFI [1]: 105
% cells bound [2]: 32.7%
dMFI [2]: 544
B5: anti-IL-12Rβ2 VHH clone 3CAHM40 (VHH, not shown: small tags and cut ends)
VHH: B2 VHH with V63M, M82L, V101A
notes: periplasmic extract

% cells bound [1]: 10.7%
dMFI [1]: 351
% cells bound [2]: 24.4%
dMFI [2]: 558
B6: anti-IL-12Rβ2 VHH clone 3CRHM99 (VHH, not shown: small tags and cut ends)
VHH: QVQLQESGGGLVQPGGSLRLSCAASGISSSRLHVGWFRQSPGKEREFVAAISLSGGTQAYTDSVKGRFTISGDNVKNTAYLQMNSLRPEDTAVYYCAARERFIWTWSDLTYDYWGQGTQVTVSS
notes: periplasmic extract; also called 21062

% cells bound [1]: 0.18%
dMFI [1]: 86
% cells bound [2]: 28.7%
dMFI [2]: 556
B7: anti-IL-12Rβ2 VHH clone 3CRHM20 (VHH, not shown: small tags and cut ends)
VHH: QVQLQESGGGLVQAGGSLRLSCAASGRTFSKSTMGWFRQTPGKEREFVAAITWTDTEVYANSVKDRFTISRDNAKNTFYLQMHSLKLEDTAVYYCAGDRYGSSRDSVFSSPTNYPYWGQGTQVTVSS
notes: periplasmic extract; also called 21055

% cells bound [1]: 17.1%
dMFI [1]: 421
% cells bound [2]: 36%
dMFI [2]: 759
B8: anti-IL-12Rβ2 VHH clone 3CRHM49 (VHH, not shown: small tags and cut ends)
VHH: QVQLQESGGGLVQAGGSLRLSCAASGRTFSNYAMAWFRQAPGTEREFVAGLSGSGGDTAFYDNSVMGRFTISRDSAKNTMWLQINNLKPEDTAVYYCAAATHVVVSYGLVRRRGTYDYWGQGTQVTVSS
notes: periplasmic extract; also called 21058

% cells bound [1]: 15.3%
dMFI [1]: 369
% cells bound [2]: 36.7%
dMFI [2]: 767
B9: anti-IL-12Rβ2 VHH clone 3CRHM18 (VHH, not shown: small tags and cut ends)
VHH: B8 VHH with A14D, R112K
notes: periplasmic extract

% cells bound [1]: 17.2%
dMFI [1]: 470
% cells bound [2]: 35.3%
dMFI [2]: 694
B10: anti-IL-12Rβ2 VHH clone 3CRHM200 (VHH, not shown: small tags and cut ends)
VHH: B8 VHH with A14P
notes: periplasmic extract; also called 21064

% cells bound [1]: 16%
dMFI [1]: 425
% cells bound [2]: 37.3%
dMFI [2]: 826
B11: anti-IL-12Rβ2 VHH clone 3CRHM35 (VHH, not shown: small tags and cut ends)
VHH: B8 VHH with S106N
notes: periplasmic extract; also called 21057

% cells bound [1]: 18.6%
dMFI [1]: 412
% cells bound [2]: 35.8%
dMFI [2]: 689
B12: anti-IL-12Rβ2 VHH clone 3CRHM14 (VHH, not shown: small tags and cut ends)
VHH: B8 VHH with A59E, N63D, M66K, T70A, M80V, I84M, N86S, S106H
notes: periplasmic extract

% cells bound [1]: 7.51%
dMFI [1]: 294
% cells bound [2]: 37.6%
dMFI [2]: 784
B13: anti-IL-12Rβ2 VHH clone 3CAHM11 (VHH, not shown: small tags and cut ends)
VHH: QVQLQESGGGLVQAGGSLRLSCAASGRTFNNYAMAWFRQAPGKEREFIAAITRSDTTLYIDSVKGRFTISRDNAKNTVALQMNSLKPEDTAVYYCAAGMPYSYSDYPRDSKYDYWGRGTQVTVSS
notes: periplasmic extract
